Assay results reported in paper PMC6774866 (Molecular immunology, 2019).
Where no end group is shown, it is not given here.

How the values were obtained:
[1] = target: UBC6e(1-197), randomly biotinylated with biotin-NHS (Mus musculus, UniProt Q9JJZ4, biotin on exposed Lys residues (random, biotin-N-hydroxysuccinimide ester)); experiment: BLI
[2] = target: UBC6e(1-197)-LPETGGG-biotin (Mus musculus, UniProt Q9JJZ4, biotin at the C-terminus (LPETGGG-biotin, by sortagging)); experiment: BLI
[3] = target: T1, Biotinylated 14-residue UBC6e peptide (Mus musculus (identical in human), UniProt Q9JJZ4, also: biotin, position not given here); experiment: BLI
T1 chain: QADQEAKELARQIS-NH2

eGFP-UBC6e(168-186) = target: T2, eGFP-UBC6e(168-186) (Mus musculus (printed stretch matches …, UniProt Q9JJZ4, chimera, also: joined to eGFP)); experiment: pull-down
T2 chain: GSSQADQEAKELARQISFK-NH2

[4] = target: T3, Arl3 sortagged with the UBC6e(168-186) tag (Mus musculus (UBC6e tag), UniProt Q9JJZ4, chimera, also: sortagged to Arl3); experiment: pull-down
T3 chain: GSSQADQEAKELARQISFK-NH2

UBC6e(1-197)-LPETGGG-biotin, sequence (Q9JJZ4 1-197): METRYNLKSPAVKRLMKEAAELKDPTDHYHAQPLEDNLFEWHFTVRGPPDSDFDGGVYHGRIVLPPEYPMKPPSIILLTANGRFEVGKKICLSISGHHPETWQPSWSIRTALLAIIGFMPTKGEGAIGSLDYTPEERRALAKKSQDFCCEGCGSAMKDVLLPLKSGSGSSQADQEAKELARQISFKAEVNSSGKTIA
UBC6e(1-197), randomly biotinylated with biotin-NHS, sequence (Q9JJZ4 1-197): as above

B1: VHH05 (VHH)
VHH: QVQLQESGGGLVQPGGSLRLSCAASGFVFENSAMAWYRQAPGKERELIAVIGTTFIKLAESVKGRFTISRDNAKSTVYLQMNNLKPEDTAVYYCSKSGAYWGQGTQVTVSS
Kd [1]: 14 nM
Kd [2]: 16 nM
Kd [3]: ~0.15 nM
binding result (eGFP-UBC6e(168-186)): binds
binding result [4]: binds
